Measurements as given in US20140256626A1 (priority 2011, published 2014).
Where two headings read alike, the source gives them in different places.

Key:
[1] = format: physicochemical; settings: for t1/2 @ pH 7.4: buffer; for Rate of exenatide release: 50 μM conjugate
Description: Release rates were determined to be:

[2] = rat, in vivo, iv
Description: The solution was administered by i.v. injection to cannulated male Sprague Dawley rats at 100 μL/100 g body weight. A single animal was used for a complete time course, repeated in duplicate.
Rat serum samples were thawed on ice, and 200 μL was adjusted to pH ˜5.5 by addition of 5 μL of 2M acetic acid.
Proteins were precipitated from 50 μL of acidified rat serum by addition of 150 μL of cold MeOH containing 40 μg/mL Fmoc-Lys (DNP)OH as an internal standard for volume deviations. The samples were kept on ice for 2 hours and centrifuged at 14,000 rpm for 10 min at 4° C. The supernatant was analyzed on a Shimadzu™ HPLC with a Phenomenex® Jupiter® C18 300A 5 μm column (4.6×150 mm) at 40° C. The mobile phase consisted of H2O/0.1% TFA (Buffer A) and ACN/0.1% TFA (Buffer B) at 1 mL/min. […] Quantitation was performed by comparison of peak areas to standard solutions of mPEG-coumarin after MeOH precipitation in rat serum (Sigma-Aldrich) as above. Any volume deviations were corrected using the peak area of the Fmoc-Lys (DNP)OH internal standard in each sample.
Serum samples were treated with 2 volumes of acetonitrile (ACN) and centrifuged. The supernatant was dried, reconstituted in 1% formic acid and applied to HPLC (below). The sample was eluted by a water-ACN gradient containing 1% formic acid. […] HPLC-MS/MS analyses were carried out on a Sciex™ API-5500 mass spectrometer coupled with a Shimadzu™ HPLC system. The Shimadzu™ HPLC system consisted of two LC-30AD HPLC pumps and a SIL-30AC autosampler with a 100 μL loop installed. The chromatographic separations were achieved on a Jupiter® (Phenomenex®) 5 μm C18, 300 Å, HPLC column, 2.0×150 mm, with mobile phase gradients. The mass spectrometer was operated in positive ESI mode and the resolution setting used was unit for both Q1 and Q3. […] Peak-area integrations were performed using Analyst software (version 1.5.2) from AB Sciex™.

Substance | t1/2 @ pH 7.4 [1] [h] | Rate of exenatide release ([1]; pH 8.5, 100 mM bicine) | Rate of exenatide release ([1]; pH 9.5, 100 mM sodium borate) | Conjugate clearance rate [2] [h⁻¹] | Conjugate clearance t1/2 [2] [h] | Plasma half-life of the conjugate [2] [h]
4-chlorophenyl-SO2: DBCO-Lys(DEAC)-[GL4-400] 40 kDa PEG conjugated to N-[7-azido-1-(4-chlorophenylsulfonyl)-2-heptyloxycarbonyl]-exenatide | 59 | .00248 h⁻¹ | – | – | – | –
CH3—SO2: DBCO-Lys(DEAC)-[GL4-400] 40 kDa PEG conjugated to N-[7-azido-1-(methylsulfonyl)-2-heptyloxycarbonyl]-exenatide | 483 | – | .00301 h⁻¹ | – | – | –
Phenyl-SO2: DBCO-Lys(DEAC)-[GL4-400] 40 kDa PEG conjugated to N-[7-azido-1-(phenylsulfonyl)-2-heptyloxycarbonyl]-exenatide | 133 | – | .00726 h⁻¹ | 0.015 | 46 | 28
